Measurements taken from PMC10951424, “Fibroblast-specific PRMT5 deficiency suppresses cardiac fibrosis and left ventricular dysfunction in male mice” (Nature Communications, 2024).

B1: GST-Smad3 deletion mutant aa 225-425 (domain or fragment)
chain: not shown
notes: PCR product cloned into pGEX6P1 (BamHI, XhoI); cDNA from the pCMV Flag hSmad3 vector (human); source: E. coli BL21DE3, recombinant, immobilized on glutathione-Sepharose 4B beads
B2: recombinant full-length GST-Smad3 (natural protein, human, UniProt P84022 1-425, looked up)
chain: MSSILPFTPPIVKRLLGWKKGEQNGQEEKWCEKAVKSLVKKLKKTGQLDELEKAITTQNVNTKCITIPRSLDGRLQVSHRKGLPHVIYCRLWRWPDLHSHHELRAMELCEFAFNMKKDEVCVNPYHYQRVETPVLPPVLVPRHTEIPAEFPPLDDYSHSIPENTNFPAGIEPQSNIPETPPPGYLSEDGETSDHQMNHSMDAGSPNLSPNPMSPAHNNLDLQPVTYCEPAFWCSISYYELNQRVGETFHASQPSMTVDGFTDPSNSERFCLGLLSNVNRNAAVELTRRHIGRGVRLYYIGGEVFAECLSDSAIFVQSPNCNQRYGWHPATVCKIPPGCNLKIFNNQEFAALLAQSVNQGFEAVYQLTRMCTIRMSFVKGWGAEYRRQTVTSTPCWIELHLNGPLQWLDKVLTQMGSPSIRCSSVS
notes: Smad3, full length; the only Smad3 cDNA named is the pCMV Flag hSmad3 vector (human); The methods tell the cloning into pGEX6P1 only for the deletion mutants; the full-length GST construct is not described; also called GST-tagged Smad3; source: E. coli BL21DE3, recombinant, immobilized on glutathione-Sepharose 4B beads

Biological target: T1, His-tag fusion human PRMT5 protein (human, UniProt O14744 1-637)
T1 construct: Protein arginine methyltransferase 5 (PRMT5), human; also called His-tagged PRMT5; his-tagged PRMT5; source: E. coli BL21DE3, recombinant; not shown: His-tag, N-terminal, kept
T1 sequence (O14744 whole entry, the tested form may be a part): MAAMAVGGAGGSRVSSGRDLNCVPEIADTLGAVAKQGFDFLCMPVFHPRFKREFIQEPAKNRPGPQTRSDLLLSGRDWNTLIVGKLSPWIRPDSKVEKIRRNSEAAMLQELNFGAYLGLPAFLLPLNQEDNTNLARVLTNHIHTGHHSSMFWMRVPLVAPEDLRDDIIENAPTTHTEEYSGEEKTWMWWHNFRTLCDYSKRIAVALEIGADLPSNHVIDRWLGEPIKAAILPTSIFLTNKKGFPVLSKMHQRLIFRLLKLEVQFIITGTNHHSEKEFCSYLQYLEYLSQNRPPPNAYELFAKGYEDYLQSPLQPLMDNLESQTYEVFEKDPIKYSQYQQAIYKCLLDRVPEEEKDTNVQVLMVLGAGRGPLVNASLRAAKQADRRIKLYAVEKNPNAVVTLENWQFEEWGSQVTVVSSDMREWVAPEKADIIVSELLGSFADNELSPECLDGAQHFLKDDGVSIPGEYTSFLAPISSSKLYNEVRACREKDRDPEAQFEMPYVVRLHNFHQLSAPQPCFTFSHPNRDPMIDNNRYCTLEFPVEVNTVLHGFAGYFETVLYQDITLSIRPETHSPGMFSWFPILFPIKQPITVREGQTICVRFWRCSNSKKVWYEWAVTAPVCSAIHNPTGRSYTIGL
Assay: pull-down; GST fusion proteins immobilized on glutathione-Sepharose 4B beads, mixed with His-tag fusion human PRMT5; 4 °C, 2 h; beads washed four times; western blot with anti-His-tag mAb
Settings: both partners purified

| Binder | binding result |
| --- | --- |
| B1 | binds |
| B2 | binds |
